Test results reported in patent publication US20200199225A1.

Target: BCRs exhibiting the target structure on primary B-cells from the blood of leukemia patients
Assay: cell-based or functional assay

lymphocyte count in the flow-through after double purification over LS columns with antibody-conjugated MACS MicroBeads (start: 80,000 lymphocytes/µl) (lymphocytes/µl): < 5000
B1: AVA-mAb01 (antibody, V domains shown)
VH: QVQLQQSGPGLVQPSQSLSITCTVSGFSLTSYGIHWVRQSPGKGLEWLGVIWRGGGTDSNAAFMSRLSITKDNSKSQVFFKMNSLQADDTAIYYCARSRYDEEESMNYWGQGTSVTVSS
VL: QIVLTQSPASLSASVGETVTITCRASGNIHSYLAWYQQKQGKSPQLLVYNAKTLADGVPSRFSGSGSGTQYSLKINSLQPEDFGSYYCQHFWNTPPTFGAGTKLELK
